Test results as given in US6428997B1, “Aminopeptidase derived from Bacillus licheniformis and process for preparation of natural type proteins” (LG Chemical Ltd., priority 1997, dated 2002).

Assays:
[1] = substrate: CC(C)C[C@H](N)C(=O)Nc1ccc([N+](=O)[O-])cc1; experiment: Kinetic parameters of Bacillus licheniformis aminopeptidase (Lineweaver-Burk); format: biochemical; conditions: other: Tris-Cl pH 8.0, 37° C., 0.5 U enzyme, absorbance at 405 nm, Lineweaver-Burk plot
Procedure: (§1) Aminopeptidase activities of this invention were measured by the method of Pfleiderer (Pfleiderer, Meth. Enzymol., 19, 514-521, 1970). Precisely, 1 U of enzyme activity defines the enzyme quantity changing 1 absorbance at 405 nm which is measured by the process adding aminopeptidase in 1 ml solution of […] Tris-Cl (pH 8.0) and 2 mM leucine-p-nitroanilide (Sigma, USA), incubating at 37° C. for 1 min, then adding 100 μl of 70% acetic acid to stop the reaction. At that time leucine-p-nitroanilide was dissolved in dimethylsulfoxide (DMSO) to make 100 mM solution.
(§2) In order to compare substrate specificity of aminopeptidase of this invention, 2 kinds of substrate were used. In detail, one was synthetic substrates of p-nitroanilide derivative and purchased from Sigma, USA and the other was oligopeptide such as methionyl oligopeptide of SEQ. ID. NO: 1 which have amino acid sequence similar to N-terminus of methionyl HGH and leucyl oligopeptide of SEQ. ID. NO: 2. The oligopeptides of this invention were synthesized.
(§3) Enzyme reaction of aminopeptidase was performed by the process described in Reference Examples. At that time p-nitroanilide derivative was used as synthetic substrate. Leucine p-nitroanilide was used as substrate to perform the reaction in concentration of 0.03125, 0.0625, 0.125, 0.25, 0.5, 1 mM and methionine p-nitroanilide in 0.125, 0.25, 0.5, 1 mM and aminopeptidase in 0.5 U respectively. Above reactions using leucine-p-nitroanilide proceeded for 2 min and methionine-p-nitroanilide for 40 min. Then 70% acetic acid was added to stop the reactions and absorbance at 405 nm was measured. The product concentration was measured by adopting absorbance constant ε405=9450M^−1 cm^−1.
(§4) In reaction condition mentioned above, initial velocity of enzyme reaction was measured with varying the substrate concentration. Lineweaver-Burk plot was used to determine Km value and Maximum reaction velocity of aminopeptidase from Bacillus licheniformis. In addition kcat and kcat/Km was determined by using Km value and maximum reaction velocity described above.

[2] = substrate: CSCC[C@H](N)C(=O)Nc1ccc([N+](=O)[O-])cc1; experiment: as above; format: biochemical; conditions: other: Tris-Cl pH 8.0, 37° C., 0.5 U enzyme, absorbance at 405 nm, Lineweaver-Burk plot
Procedure: as §1, §2, §3, §4

B1: Bacillus licheniformis aminopeptidase (Bacillus licheniformis DSM 13 = ATCC 14580) (protein)
chain: KFSKKFNENRAYQTIYHLSETIGPRVTGTAEEKKSAAFIASQMKKSNLKVSTQKFSIPDRLEGTLTVQGNNVPARPAAGSAPTAAEGLAAPLYDAGLGLPGDFTEEAKGKIAVILRGELTFYEKAKNAADAGASGVIIYNNVDSLVPLTPNLSGNKVDIPVVGVKKEDGEKLLSEQEAILKLKAHKNQTSQNVIGVRKAKGVKNPDIVYVTSHYDSVPYAPGANDNASGTSVVLELARILKTVPADKEIRFITFGAEEIGLLGSRHYVSTLSNQEVKRSVANFNLDMVATSWENASQLYINTPDGSANLVWQLSKAASLSLGKDVLFLHQGGSSDHVPFHEAGIDSANFIWREPGTGALEPWYHTPYDTIEHISKDRLKTAGQIAGTAVYNFTKKENRKPSYSSVAQ
- Km [1]: 739 µM
- kcat [1]: 130 s⁻¹
- kcat/Km [1]: 176000 M⁻¹ s⁻¹
- Km [2]: 1004 µM
- kcat [2]: 2.59 s⁻¹
- kcat/Km [2]: 2580 M⁻¹ s⁻¹
